# In IntAct's records for PubMed 9847329:
# B1: Protein Rep68 (Adeno-associated virus 2 (isolate Srivastava/1982)), P03132 (parent)
# chain: MPGFYEIVIKVPSDLDGHLPGISDSFVNWVAEKEWELPPDSDMDLNLIEQAPLTVAEKLQRDFLTEWRRVSKAPEALFFVQFEKGESYFHMHVLVETTGVKSMVLGRFLSQIREKLIQRIYRGIEPTLPNWFAVTKTRNGAGGGNKVVDECYIPNYLLPKTQPELQWAWTNMEQYLSACLNLTERKRLVAQHLTHVSQTQEQNKENQNPNSDAPVIRSKTSARYMELVGWLVDKGITSEKQWIQEDQASYISFNAASNSRSQIKAALDNAGKIMSLTKTAPDYLVGQQPVEDISSNRIYKILELNGYDPQYAASVFLGWATKKFGKRNTIWLFGPATTGKTNIAEAIAHTVPFYGCVNWTNENFPFNDCVDKMVIWWEEGKMTAKVVESAKAILGGSKVRVDQKCKSSAQIDPTPVIVTSNTNMCAVIDGNSTTFEHQQPLQDRMFKFELTRRLDHDFGKVTKQEVKDFFRWAKDHVVEVEHEFYVKKGGAKKRPAPSDADISEPKRVRESVAQPSTSDAEASINYADRLARGHSL
# Variants of: B1
# Settings: with tcp4_human SUB1, P53999
row,Variant,effect of a mutation on the interaction
1,MPGFYEIVIKVPSDLDGHLPGISDSFVNWVAEKEWELPPDSDMDLNLIEQAPLTVAEKLQRDFLTEWRRVSKAPEALFFVQFEKGESYFHMHVLVETTGVKSMVLGRFLSQIREKLIQRIYRGIEPTLPNWFAVTKTRNGAGGGNKVVDECYIPNYLLPKTQPELQWAWTNMEQYLSACLNLTERKRLVAQHLTHVSQTQEQNKENQNPNSDAPVIRSKTSARYMELVGWLVDKGITSEKQWIQEDQASYISFNAASNSRSQIKAALDNAGKIMSLTKTAPDYLVGQQPVEDISSNRIYKILELNGYDPQYAASVFLGWATKKFGKRNTIWLFGPATTGHTNIAEAIAHTVPFYGCVNWTNENFPFNDCVDKMVIWWEEGKMTAKVVESAKAILGGSKVRVDQKCKSSAQIDPTPVIVTSNTNMCAVIDGNSTTFEHQQPLQDRMFKFELTRRLDHDFGKVTKQEVKDFFRWAKDHVVEVEHEFYVKKGGAKKRPAPSDADISEPKRVRESVAQPSTSDAEASINYADRLARGHSL [K340H],disrupting interaction
